For the experiment, the target named is p53(293-393) (human, UniProt P04637 293-393). Kind of experiment: co-IP with anti-p53 from transfected U2OS cells, immunoblot with anti-MUC1 C-ter. On the technique in general: In western blotting, separated proteins are transferred to a membrane and probed.
Sequence of p53(293-393) (P04637 293-393): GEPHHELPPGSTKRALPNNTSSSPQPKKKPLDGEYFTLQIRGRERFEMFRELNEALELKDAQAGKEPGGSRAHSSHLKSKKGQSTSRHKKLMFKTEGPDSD

B1: Myc-MUC1-CD(1-72) (other)
chain: CQCRRKNYGQLDIFPARDTYHPMSEYPTYHTHGRYVPPSSTDRSPYEKVSAGNGGSSLSYTNPAVAATSANL
notes: Transiently expressed in U2OS cells; not shown: Myc tag
Regarding B1, the binding result was “binds”.

Values taken from patent US20080286264A1 (Dana-Farber, published 2008).
